We go through two molecules from article PMC4439256 (Experimental cell research, 2015).

Experiment [1] addresses T1, human DNA helicase B (human, UniProt Q8NG08 1-1087). The experiment in a line: co-IP.
Experiment [2] deals with T1, human DNA helicase B. In words: pull-down.
The target in experiment [3] is HDHB helicase domain (aa 394-958) (human, UniProt Q8NG08 394-958). The experiment in a line: pull-down.
In experiment [4] the target is HDHB N-terminus (aa 1-393) (human, UniProt Q8NG08 1-393). In words: pull-down.
HDHB N-terminus (aa 1-393), sequence (Q8NG08 1-393): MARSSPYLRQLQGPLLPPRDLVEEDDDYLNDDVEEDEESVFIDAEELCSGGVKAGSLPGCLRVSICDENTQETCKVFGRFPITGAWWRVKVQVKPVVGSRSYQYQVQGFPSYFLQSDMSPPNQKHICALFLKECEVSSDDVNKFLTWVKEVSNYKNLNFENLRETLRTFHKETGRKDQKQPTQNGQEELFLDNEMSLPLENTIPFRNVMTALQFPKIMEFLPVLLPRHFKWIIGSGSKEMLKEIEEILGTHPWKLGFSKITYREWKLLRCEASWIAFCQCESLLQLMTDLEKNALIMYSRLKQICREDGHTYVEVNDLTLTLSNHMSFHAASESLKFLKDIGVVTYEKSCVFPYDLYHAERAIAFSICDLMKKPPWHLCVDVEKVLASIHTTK

T1 sequence (Q8NG08 whole entry): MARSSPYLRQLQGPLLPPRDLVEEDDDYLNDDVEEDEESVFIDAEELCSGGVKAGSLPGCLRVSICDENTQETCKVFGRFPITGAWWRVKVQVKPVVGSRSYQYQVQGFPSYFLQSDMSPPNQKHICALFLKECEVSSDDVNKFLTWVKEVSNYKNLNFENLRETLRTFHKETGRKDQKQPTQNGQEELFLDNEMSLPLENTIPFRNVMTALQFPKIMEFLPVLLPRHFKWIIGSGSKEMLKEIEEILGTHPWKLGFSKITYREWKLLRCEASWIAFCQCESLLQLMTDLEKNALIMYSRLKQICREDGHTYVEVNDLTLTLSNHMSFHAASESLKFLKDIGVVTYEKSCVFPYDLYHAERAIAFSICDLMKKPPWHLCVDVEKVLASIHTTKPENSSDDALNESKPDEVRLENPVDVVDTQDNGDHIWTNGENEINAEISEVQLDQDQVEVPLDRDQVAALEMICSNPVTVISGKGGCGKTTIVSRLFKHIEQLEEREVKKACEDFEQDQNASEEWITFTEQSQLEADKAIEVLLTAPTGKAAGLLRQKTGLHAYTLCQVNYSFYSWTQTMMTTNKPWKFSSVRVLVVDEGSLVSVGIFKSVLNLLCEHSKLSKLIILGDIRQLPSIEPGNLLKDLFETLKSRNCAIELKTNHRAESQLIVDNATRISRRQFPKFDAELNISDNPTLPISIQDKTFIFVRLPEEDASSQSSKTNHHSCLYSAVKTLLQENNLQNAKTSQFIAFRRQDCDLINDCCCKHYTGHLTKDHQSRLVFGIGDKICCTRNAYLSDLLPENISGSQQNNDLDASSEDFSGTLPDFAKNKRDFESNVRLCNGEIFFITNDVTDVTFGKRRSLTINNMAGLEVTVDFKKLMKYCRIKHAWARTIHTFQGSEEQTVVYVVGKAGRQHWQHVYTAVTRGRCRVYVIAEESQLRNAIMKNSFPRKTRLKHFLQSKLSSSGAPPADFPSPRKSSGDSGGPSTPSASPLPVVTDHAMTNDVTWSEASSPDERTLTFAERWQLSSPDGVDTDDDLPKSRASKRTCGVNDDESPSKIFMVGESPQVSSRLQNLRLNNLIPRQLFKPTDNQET
HDHB helicase domain (aa 394-958), sequence (Q8NG08 394-958): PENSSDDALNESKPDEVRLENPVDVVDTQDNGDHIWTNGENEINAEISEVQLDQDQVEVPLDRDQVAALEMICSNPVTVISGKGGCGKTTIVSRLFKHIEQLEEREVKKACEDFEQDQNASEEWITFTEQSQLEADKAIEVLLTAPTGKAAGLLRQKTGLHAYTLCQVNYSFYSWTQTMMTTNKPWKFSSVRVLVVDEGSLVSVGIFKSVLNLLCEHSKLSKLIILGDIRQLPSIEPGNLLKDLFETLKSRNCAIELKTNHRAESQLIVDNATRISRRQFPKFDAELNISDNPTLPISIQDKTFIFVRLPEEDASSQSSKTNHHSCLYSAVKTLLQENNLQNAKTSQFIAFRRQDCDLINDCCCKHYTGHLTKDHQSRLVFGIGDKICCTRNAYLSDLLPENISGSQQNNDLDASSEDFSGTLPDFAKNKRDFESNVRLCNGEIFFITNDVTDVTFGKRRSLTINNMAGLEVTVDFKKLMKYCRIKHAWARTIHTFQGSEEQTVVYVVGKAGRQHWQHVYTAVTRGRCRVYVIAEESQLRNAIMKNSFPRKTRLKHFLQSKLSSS

B1: His-Cdc45 (natural protein, human, UniProt O75419 1-566, looked up)
chain: MFVSDFRKEFYEVVQSQRVLLFVASDVDALCACKILQALFQCDHVQYTLVPVSGWQELETAFLEHKEQFHYFILINCGANVDLLDILQPDEDTIFFVCDTHRPVNVVNVYNDTQIKLLIKQDDDLEVPAYEDIFRDEEEDEEHSGNDSDGSEPSEKRTRLEEEIVEQTMRRRQRREWEARRRDILFDYEQYEYHGTSSAMVMFELAWMLSKDLNDMLWWAIVGLTDQWVQDKITQMKYVTDVGVLQRHVSRHNHRNEDEENTLSVDCTRISFEYDLRLVLYQHWSLHDSLCNTSYTAARFKLWSVHGQKRLQEFLADMGLPLKQVKQKFQAMDISLKENLREMIEESANKFGMKDMRVQTFSIHFGFKHKFLASDVVFATMSLMESPEKDGSGTDHFIQALDSLSRSNLDKLYHGLELAKKQLRATQQTIASCLCTNLVISQGPFLYCSLMEGTPDVMLFSRPASLSLLSKHLLKSFVCSTKNRRCKLLPLVMAAPLSMEHGTVTVVGIPPETDSSDRKNFFGRAFEKAAESTSSRMLHNHFDLSVIELKAEDRSKFLDALISLLS
As to B1, the binding result in experiment [1] is recorded as “binds”.

B2: GST-tagged Cdc45N (1-303) (domain or fragment, human, UniProt O75419 1-303, looked up)
chain: MFVSDFRKEFYEVVQSQRVLLFVASDVDALCACKILQALFQCDHVQYTLVPVSGWQELETAFLEHKEQFHYFILINCGANVDLLDILQPDEDTIFFVCDTHRPVNVVNVYNDTQIKLLIKQDDDLEVPAYEDIFRDEEEDEEHSGNDSDGSEPSEKRTRLEEEIVEQTMRRRQRREWEARRRDILFDYEQYEYHGTSSAMVMFELAWMLSKDLNDMLWWAIVGLTDQWVQDKITQMKYVTDVGVLQRHVSRHNHRNEDEENTLSVDCTRISFEYDLRLVLYQHWSLHDSLCNTSYTAARFKLW
Regarding B2, the binding result in experiment [2], in experiment [3] and in experiment [4] was “binds” throughout.
